Assay results published in publication PMC6801465.

Target: EGFR on the cell surface (Huh-7, U87MG, MDA-MB-231) (human) (UniProt P00533)
Test: flow cytometry
Settings: 2'-OMe on U, G, C, all A (positions 8, 14, 19, 21, 24) are DNA, Binding buffer: serum-free DMEM + 100 ug/mL tRNA, aptamers denatured 95 C 5 min, snap cooled on ice 10 min, ELONA 1 h (temperature not given)

UGCUUUGAUGUCGAUUCGACAGGAGGC [CL-4RNV616]
Kd (Huh-7 cells): 71.2 nM | Kd (MDA-MB-231 cells): 89.8 nM | Kd (U87MG cells): 112 nM
